{"source": "the DeepSol protein solubility set"}
{"test": "soluble on expression in E. coli; label from the status in PepcDB or PDB records"}
{"sequence": "MGSDKIHHHHHHMPTLPAYPLFREHSLLYLAHMGISKLKPSNSATTLLQLAREVLAIEAREVQALAGRLDQSFVNAVELILQCRGRVVVTGIGKSGHIGNKIAATLASTGTPAFFMHPAEASHGDLGMITRDDVVIALSNSGEADELLALLPPLKRIGTPIISISGNRHSTLSKAADIFLDAHVSQEACPLGLAPTASTTAALALGDALAVTLLDQRGFSREDFALAHPGGSIGRRLLLHVQDVMRSGDDIPAVSVSSSLKDGLLEMSRKGLGMTAVLDAADKPVGIFTDGDLRRAFEAGIDINGTRMADVMHAHPRSILPGQLAVDALALMEQYSISSLLVVDQQGNLVGALNMHDLLMAKVV", "soluble on expression in E. coli": "not soluble"}
{"sequence": "MRILADENIPVVDAFFADQGSIRRLPGRAIDRAALAEVDVLLVRSVTEVSRAALAGSPVRFVGTCTIGTDHLDLDYFAEAGIAWSSAPGCNARGVVDYVLGCLLAMAEVRGADLAERTYGVVGAGQVGGRLVEVLRGLGWKVLVCDPPRQAREPDGEFVSLERLLAEADVISLHTPLNRDGEHPTRHLLDEPRLAALRPGTWLVNASRGAVVDNQALRRLLEGGADLEVALDVWEGEPQADPELAARCLIATPHIAGYSLEGKLRGTAQIYQAYCAWRGIAERVSLQDVLPETWLAGLQLNPGCDPAWALATLCRAVYDPRSDDAAFRRSLTGDSATRRAAFDALRKHYPPRREITGLRVATGGQAELQRVVRALGAQLV", "soluble on expression in E. coli": "soluble"}
{"sequence": "MKTALESLRNASALYNEKLVKLMKSFGMTIAEHRLLLLIESGLDTQEKISLATKLDTSTLSRQLKSAVRKELLDKLATGRDKRQLIYSVTEKGQSDLKGIAAELARIDANVFSDWNQNDRALLDQLLDKLEKSI", "soluble on expression in E. coli": "not soluble"}
{"sequence": "MGSDKIHHHHHHEKKDKKENDTSAVQATETDCTAAELVTTEPEGEITISEMIDQRIKEEGKIMIYRMCIAESNTPVEITEDLKVKIISYDGDKLKGYKNPDDFLMETRLGDIIHNKVDYSTYNIGTYGGNWKRHRYVSGGDEKYVEEEGYVQREITTDDSGNNAQLETLYSYSKGTLYSRDAGSKEWNQTEKEDSLDIVSFGTFERIKLDGKTYMTFCVRDNLNLIEYDIIPDNKFTENKTVVYDTPGTEKTTVNTVDYLKEYQAVPKEELEQMIVFPGSKKAESSQAAD", "soluble on expression in E. coli": "not soluble"}
{"sequence": "GDLSNYFSNLSRLNCPQTIMTFRLFDPGFPFTDIEVNADIVLDRDAEKLPENWLQQLTGLSDTDVSMTAKGNVLSGQFLLPDFNLKLQDKSHAYLLLQGMDLEEVLRIQPQIGIYANGLFDGVLPVDLVDGKVSISGGQLAARAPGGLIAISGNPAVDQMRQSQPYLDFVFSALEHLAYSQLSSSFDMDNTGDATLLVEVKGRSQGIERPIHLNYSHEENMLQLFRSLQIGNDLQNRIEK", "soluble on expression in E. coli": "not soluble"}
{"sequence": "MGHHHHHHSHMDALSPSPAIPSNTDYPGPHSFDVSFQQSSTAKSATWTYSTELKKLYCQIAKTCPIQIKVMTPPPQGAVIRAMPVYKKAEHVTEVVKRCPNHELSREFNEGQIAPPSHLIRVEGNSHAQYVEDPITGRQSVLVPYEPPQVGTEFTTVLYNFMCNSSCVGGMNRRPILIIVTLETRDGQVLGRRCFEARICACPGRDRKADEDSIRKQQVSDSTKNGDGTKRPFRQNTHGIQM", "soluble on expression in E. coli": "not soluble"}
{"sequence": "MTAVTAGKLIGVGVGPGDPELLTVKAVKAIKSADVIVFHAKPNGQSAAHRIAESYIRQDQVLELLEYPVTTGVTEHPGGYAGAMAAFYASVGERLRDHLIEGKNVVVLALGDPMLYSSYQHIHRLLSEDFNAEIIPGIPSITSAADVLGKPLCEDDDVLTILPGTLPHSELVARLSDSDGAVVMKLGRTFDKVRKAMIEAGVADRAHVVVRVGMADQHSVPVMEADPQAIPYFSVAVVPSITDTNGDSGDKQQGEVVVVGLGPGGHRWTTPEVMAELKQATDIVGYSTYVNRVPQQAGQRRHLSDNKVEAERAAMALDMAKQGRKVAVVSSGDPGVFAMAAAVLETADDDQWREVPVRIIPGMTAAQAVASRVGAPLGHDFGMISLSNRLKPFEIVEKRIRALASADMAFACYNPASKERRWQVARMKEIVSEYQAGSTPVIVARAVGSDQETVTVTTLEDFDPDIVDMRTMVIIGASTTKTYQGGDGVRVFTSRWYT", "soluble on expression in E. coli": "not soluble"}
{"sequence": "MGHHHHHHSHMDGTRTSLDIEEYSDTEVQKNQVLTLEEWQDKWVNGKTAFHQEQGHQLLKKHLDTFLKGKSGLRVFFPLCGKAVEMKWFADRGHSVVGVEISELGIQEFFTEQNLSYSEEPITEIPGTKVFKSSSGNISLYCCSIFDLPRTNIGKFDMIWDRGALVAINPGDRKCYADTMFSLLGKKFQYLLCVLSYDPTKHPGPPFYVPHAEIERLFGKICNIRRLEKVDAFEERHKSWGIDCLFEKLYLLTEK", "soluble on expression in E. coli": "soluble"}
{"sequence": "MNMDFNLFMNDIVRQARQEITAAGYTELKTAEEVDEALTKKGTTLVMVNSVCGCAGGIARPAAYHSVHYDKRPDQLVTVFAGQDKEATARARDYFEGYPPSSPSFAILKDGKIMKMVERHEIEGHEPMAVVAKLQEAFEEYCEEV", "soluble on expression in E. coli": "not soluble"}
{"sequence": "MNTGAQIYRNSSSSIDKNIVDRIYKDGFLIAQYGLYMKRERDYKTFKVPVDAGFSCPNKDGTIDTRGCIFCPKMGRPISVEYCNIKYSLKDQIETQVKQNKEKGIGKFYVYFYPGTNTHGTPERLKELWDYALSFEDVIGISIGTRPDCLEDEKLDILENYVKQGYEIWIDLGIQTMHDKTLDFLNRKHSSNDIRRVLIECKKRGILVCGHIILGLPDESWNMMMETSKMLSDLEIDALKIYPLVVIENTELEEIYWKGEYKSLDEKQYIHLVSDFLEHLSPYVIIQRVSKDKVPDEIKISPEWSLRRLRILNEVSKELARRNSKQGSKYKK", "soluble on expression in E. coli": "not soluble"}
{"sequence": "SLFFFASQIVREENKLLDLLFNLFKDFNSFKLEVKRRDKNFAENSSNFKKYLAVKLFEKYQLKGVINNPEIIANIEILKEHFLVFTER", "soluble on expression in E. coli": "not soluble"}
{"sequence": "MGSDKIHHHHHHMSIEAYDQLAIFAVVARERSFTRAAARLGMSQPALSRAMRQLEERLGIRLLARTTRSVSATEAGEHLLRVVAPRFEEIDTELALLSQFRDKPAGRLRITAGEHPAVTILQPALAKILPDHPDIRVEVIVDYGLTDIVAEGYDAGVRLGEQIAKDMIAVRIGPEVRMAVVGSPDYFARHPRPRTPRDLIRHNCIAIRLPTYGGIFPWEFEKKGEELKVRVEGQLVFNNIAMRLDAALRGLGLTYMPEDLVKAHVREGVLVRVLSDWCPPIPGYHLYYPSRRQSSPAFTVLRDALRYLG", "soluble on expression in E. coli": "not soluble"}
{"sequence": "MATIDLQKKSVKIVLEKKQLTKVTARVGLVLDITGSMRPLYKNGTVQNVVERILAVADQFDDNGLLDVWVYDNEFPRLKPVSEKDFPGYVDREILNNDRLHKFGRNDEPPVMKDVLRNMLRRNRARILLSLFLSMTGAVKSQSNRLIEASSDKPVFWQFVGIGNGNFDFLNKLDTLEGRVIDNTNFLHIEEIDRISDDELYDALLAEFPFWLKEAKEKGIVREQEPPAEKPKKKGFFSRLFSKLEHHHHHH", "soluble on expression in E. coli": "soluble"}
{"sequence": "SASMAGPDHLFNLRNHFYLGAYQAAINNSEIPNLSQEDIVERDCLVHRAYIALGSYQLVISEIDEAAATPLQAVKLLAMYLSSPENKESTISSLREWLADPTVGNNAIIRLIAGTIFMHEEDYNEALKHTHSGGTMDLHALNVQIFIKMHRSDFAEKQLRVMQQIDEDHTLTQLASAWLNLAVGGSKIQEAYLIFQDFSEKYPMTSLILNGKAVCCMHMGNFEEAETLLLEALNKDAKDPETLANLVVCSLHVGKSSSRYLNQLKLSHPEHVLVKRAASAEDNFERALQSFA", "soluble on expression in E. coli": "soluble"}
{"sequence": "MSLETQWTRMTADEAAEIIQHNDMVAFSGFTPAGSPKALPTAIARRANEQHEAKKPYQIRLLTGASISAAADDVLSDADAVSWRAPYQTSSGLRKKINQGAVSFVDLHLSEVAQMVNYGFFGDIDVAVIEASALAPDGRVWLTSGIGNAPTWLLRAKKVIIELNHYHDPRVAELADIVIPGAPPRRNSVSIFHAMDRVGTRYVQIDPKKIVAVVETNLPDAGNMLDKQNPMCQQIADNVVTFLLQEMAHGRIPPEFLPLQSGVGNINNAVMARLGENPEIPPFMMYSEVLQESVVHLLETGKISGASASSLTISADSLRKIYDNMDYFASRIVLRPQEISNNPEIIRRLGVIALNVGLEFDIYGHANSTHVAGVDLMNGIGGSGDFERNAYLSIFMAPSIAKEGKISTVVPMCSHVDHNEHSVKVIITEQGIADLRGLSPLQRARTIIDNCAHPMYRDYLHRYLENAPGGHIHHDLSHVFDLHRNLIATGSMLGEGHHHHHH", "soluble on expression in E. coli": "soluble"}
{"sequence": "MGSDKIHHHHHHMRTVYAIVVNYNNFDDTAECIDSLLNQTYPCRVVVVDNGSEREVIEKLRRKYPQVEMLELGENRGYAGGCNAGIRAVIDKADYVLISNNDVVFERDAVERMVSEMEEDETIAACQPVVKYYGDERIWSAGTRIFLGYPVLHLKNKMVEVEISFDSPFGLVGCAMLIRSSALKDVGFFDEELFMMHEETEWCIRARKKGYRLAVCKAVVRHKVSASLGLFSPHYLYYTARNWLIVARRAGKAMFFYALITEPLRVLYYLVRLKRKGDIIQYLKGVVHGILSRKGRRC", "soluble on expression in E. coli": "not soluble"}
{"sequence": "SLIDNPHAQDCWPNQGHMDVQGLTVKYTEAGRSVLQDLSFTVEGGQSVGVLGRTGSGKSTLLSALLRLASTDGEISIDGVSWNSVTLETWRKAFGVVPQKIFILTGTFRMNLDPHARYSDEELWRVAEEVGLKSVIEQFPDKLDFQLEDGGYVLSNGHKQLMCLARSILSKARILLLDEPSAFLDPITLQVLRKTLKQSFSNCTVILSEHRVEPLLECDSFLMIEGSSMKRYDSIQKLLNETSDLKQAMSAAE", "soluble on expression in E. coli": "soluble"}
{"sequence": "HETENAWRETEERLAATYQAATIGIAESDADGRLLRVNDAFCTMLGRSREQLLNMTFLDYTHEDDRDEEARCYARQVSGETDTYAIRKRAVKADGTVIYLDVYSSTVRDRTGRFRYGVRVLLDVT", "soluble on expression in E. coli": "not soluble"}
{"sequence": "ALAKRIDAALILKDGRVVKGSNFENLRDSGDPVELGKFYSEIGIDELSFWDITASVEKRKTMLELVEKVAEQIDIPITVGGGIYDFETASELILRGADKVEINTAAVENPSLITQIAQTFGSQAVVVYIAAKRVDGEFMVFTYSGTKNTGILLRDWVVEVEKRGAGEIVLGSIDRLGTKSGYDTEMIRFVRPLTTLPIIAHRGAGKTEHFLEAFLAGADAAKADSVFHSREIDVRELKEYLKKHGVNVRLEGLGSLEHHHHHH", "soluble on expression in E. coli": "soluble"}
{"sequence": "MERPQPDSMPQDLSEALKEATKEVHTQAENAEFMRNFQKGQVTRDGFKLVMASLYHIYVALEEEIERNKESPVFAPVYFPEELHRKAALEQDLAFWYGPRWQEVIPYTPAMQRYVKRLHEVGRTEPELLVAHAYTRYLGDLSGGQVLKKIAQKALDLPSSGEGLAFFTFPNIASATKFKQLYESRMNSLEMTPAVRQRVIEEAKTAFLLNIQLFEELQELLTHDTKDQSPSRA", "soluble on expression in E. coli": "soluble"}
